According to patent US20250066503A1, “CELL INJURY INDUCING THERAPEUTIC DRUG FOR USE IN CANCER THERAPY” (CHUGAI SEIYAKU KABUSHIKI KAISHA, priority 2016, published 2025):

molecular target: T1, human GPC3 (human, UniProt P51654 25-563); assay: SPR
T1 construct: range 25-563; soluble analyte; also called soluble human GPC3; glypican 3
T1 sequence (P51654 25-563 limits assumed): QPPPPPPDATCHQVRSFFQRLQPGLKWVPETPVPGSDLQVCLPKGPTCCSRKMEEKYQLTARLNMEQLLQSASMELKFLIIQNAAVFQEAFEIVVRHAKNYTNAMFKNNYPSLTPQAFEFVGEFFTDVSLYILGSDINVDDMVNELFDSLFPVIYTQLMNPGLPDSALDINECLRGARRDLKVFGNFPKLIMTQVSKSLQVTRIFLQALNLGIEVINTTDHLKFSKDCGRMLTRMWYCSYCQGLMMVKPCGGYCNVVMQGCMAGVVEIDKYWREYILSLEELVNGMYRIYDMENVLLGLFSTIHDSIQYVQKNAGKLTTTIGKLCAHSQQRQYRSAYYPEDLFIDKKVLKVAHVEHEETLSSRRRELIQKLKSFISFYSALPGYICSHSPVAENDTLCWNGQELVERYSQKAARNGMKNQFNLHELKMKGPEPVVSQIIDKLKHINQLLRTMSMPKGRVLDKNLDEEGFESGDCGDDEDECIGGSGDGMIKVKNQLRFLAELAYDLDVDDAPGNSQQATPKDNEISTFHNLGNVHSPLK

Row | Binder | Kd
1 | GCH094-G1dh/none-Hi-Kn010G3/L0272-k0 (antibody, V domains shown, one-arm) VH: QVQLVQSGAEVKKPGASVTVSCKASGYTFTDYEMHWVRQAPGEGLEWMGAIDGETPDTAYSEKFKGRVTLTADKSTSTAYMELSSLTSEDTAVYYCTRFYSYTYWGQGTLVTVSS VL: DIVMTQSPLSLPVTPGEPASISCRSSQPLVHSNRQTYLHWYQQKPGQAPRLLIYKVSNRFSGVPDRFSGSGSGTDFTLKISRVEAEDVGVYYCGQGTQVPYTFGQGTKLEIK | 2.1 nM
2 | H0610-G1dh/none-Hi-Kn010G3/L0032-k0 (antibody, V domains shown, one-arm) VH: QVQLVQSGAEVKKPGASVKVSCKASGYTFTDYEMHWIRQPPGQGLEWIGAIDGKTPDTAYSQKFKGRVTLTADKSTSTAYMELSSLTSEDTAVYYCTRFYSYTYWGQGTLVTVSS VL: DIVMTQSPLSLPVTPGEPASISCRSSQSLVRSNRNTYLHWYQQKPGQAPRLLIYKVSNRFSGVPDRFSGSGSGTDFTLKISRVEAEDVGVYYCGQGTQVPYTFGQGTKLEIK | 3.72 nM
3 | H0610-G1dh/none-Hi-Kn010G3/L0012-k0 (antibody, V domains shown, one-arm) VH: QVQLVQSGAEVKKPGASVKVSCKASGYTFTDYEMHWIRQPPGQGLEWIGAIDGKTPDTAYSQKFKGRVTLTADKSTSTAYMELSSLTSEDTAVYYCTRFYSYTYWGQGTLVTVSS VL: DIVMTQSPLSLPVTPGEPASISCRSSQSFVHSNRNTYLHWYQQKPGQAPRLLIYKVSNRFSGVPDRFSGSGSGTDFTLKISRVEAEDVGVYYCGQGTQVPYTFGQGTKLEIK | 1.55 nM
4 | H0610-G1dh/none-Hi-Kn010G3/L0044-k0 (antibody, V domains shown, one-arm) VH: QVQLVQSGAEVKKPGASVKVSCKASGYTFTDYEMHWIRQPPGQGLEWIGAIDGKTPDTAYSQKFKGRVTLTADKSTSTAYMELSSLTSEDTAVYYCTRFYSYTYWGQGTLVTVSS VL: DIVMTQSPLSLPVTPGEPASISCRSSQSLVHPNRNTYLHWYQQKPGQAPRLLIYKVSNRFSGVPDRFSGSGSGTDFTLKISRVEAEDVGVYYCGQGTQVPYTFGQGTKLEIK | 4.57 nM
5 | H0610-G1dh/none-Hi-Kn010G3/L0043-k0 (antibody, V domains shown, one-arm) VH: QVQLVQSGAEVKKPGASVKVSCKASGYTFTDYEMHWIRQPPGQGLEWIGAIDGKTPDTAYSQKFKGRVTLTADKSTSTAYMELSSLTSEDTAVYYCTRFYSYTYWGQGTLVTVSS VL: DIVMTQSPLSLPVTPGEPASISCRSSQSLVHNNRNTYLHWYQQKPGQAPRLLIYKVSNRFSGVPDRFSGSGSGTDFTLKISRVEAEDVGVYYCGQGTQVPYTFGQGTKLEIK | 5.14 nM
6 | H0610-G1dh/none-Hi-Kn010G3/L0047-k0 (antibody, V domains shown, one-arm) VH: QVQLVQSGAEVKKPGASVKVSCKASGYTFTDYEMHWIRQPPGQGLEWIGAIDGKTPDTAYSQKFKGRVTLTADKSTSTAYMELSSLTSEDTAVYYCTRFYSYTYWGQGTLVTVSS VL: DIVMTQSPLSLPVTPGEPASISCRSSQSLVHWNRNTYLHWYQQKPGQAPRLLIYKVSNRFSGVPDRFSGSGSGTDFTLKISRVEAEDVGVYYCGQGTQVPYTFGQGTKLEIK | 2.23 nM
7 | H0610-G1dh/none-Hi-Kn010G3/L0007-k0 (antibody, V domains shown, one-arm) VH: QVQLVQSGAEVKKPGASVKVSCKASGYTFTDYEMHWIRQPPGQGLEWIGAIDGKTPDTAYSQKFKGRVTLTADKSTSTAYMELSSLTSEDTAVYYCTRFYSYTYWGQGTLVTVSS VL: DIVMTQSPLSLPVTPGEPASISCRTSQSLVHSNRNTYLHWYQQKPGQAPRLLIYKVSNRFSGVPDRFSGSGSGTDFTLKISRVEAEDVGVYYCGQGTQVPYTFGQGTKLEIK | 4.39 nM
8 | H0610-G1dh/none-Hi-Kn010G3/L0006-k0 (antibody, V domains shown, one-arm) VH: QVQLVQSGAEVKKPGASVKVSCKASGYTFTDYEMHWIRQPPGQGLEWIGAIDGKTPDTAYSQKFKGRVTLTADKSTSTAYMELSSLTSEDTAVYYCTRFYSYTYWGQGTLVTVSS VL: DIVMTQSPLSLPVTPGEPASISCRPSQSLVHSNRNTYLHWYQQKPGQAPRLLIYKVSNRFSGVPDRFSGSGSGTDFTLKISRVEAEDVGVYYCGQGTQVPYTFGQGTKLEIK | 3.04 nM
9 | H0610-G1dh/none-Hi-Kn010G3/L0009-k0 (antibody, V domains shown, one-arm) VH: QVQLVQSGAEVKKPGASVKVSCKASGYTFTDYEMHWIRQPPGQGLEWIGAIDGKTPDTAYSQKFKGRVTLTADKSTSTAYMELSSLTSEDTAVYYCTRFYSYTYWGQGTLVTVSS VL: DIVMTQSPLSLPVTPGEPASISCRSPQSLVHSNRNTYLHWYQQKPGQAPRLLIYKVSNRFSGVPDRFSGSGSGTDFTLKISRVEAEDVGVYYCGQGTQVPYTFGQGTKLEIK | 2.99 nM
10 | H0610-G1dh/none-Hi-Kn010G3/L0008-k0 (antibody, V domains shown, one-arm) VH: QVQLVQSGAEVKKPGASVKVSCKASGYTFTDYEMHWIRQPPGQGLEWIGAIDGKTPDTAYSQKFKGRVTLTADKSTSTAYMELSSLTSEDTAVYYCTRFYSYTYWGQGTLVTVSS VL: DIVMTQSPLSLPVTPGEPASISCRVSQSLVHSNRNTYLHWYQQKPGQAPRLLIYKVSNRFSGVPDRFSGSGSGTDFTLKISRVEAEDVGVYYCGQGTQVPYTFGQGTKLEIK | 3.3 nM
11 | H0610-G1dh/none-Hi-Kn010G3/L0039-k0 (antibody, V domains shown, one-arm) VH: QVQLVQSGAEVKKPGASVKVSCKASGYTFTDYEMHWIRQPPGQGLEWIGAIDGKTPDTAYSQKFKGRVTLTADKSTSTAYMELSSLTSEDTAVYYCTRFYSYTYWGQGTLVTVSS VL: DIVMTQSPLSLPVTPGEPASISCRSSQSLVHHNRNTYLHWYQQKPGQAPRLLIYKVSNRFSGVPDRFSGSGSGTDFTLKISRVEAEDVGVYYCGQGTQVPYTFGQGTKLEIK | 3.41 nM
12 | H0610-G1dh/none-Hi-Kn010G3/L0002-k0 (antibody, V domains shown, one-arm) VH: QVQLVQSGAEVKKPGASVKVSCKASGYTFTDYEMHWIRQPPGQGLEWIGAIDGKTPDTAYSQKFKGRVTLTADKSTSTAYMELSSLTSEDTAVYYCTRFYSYTYWGQGTLVTVSS VL: DIVMTQSPLSLPVTPGEPASISCRASQSLVHSNRNTYLHWYQQKPGQAPRLLIYKVSNRFSGVPDRFSGSGSGTDFTLKISRVEAEDVGVYYCGQGTQVPYTFGQGTKLEIK | 4.43 nM
13 | H0610-G1dh/none-Hi-Kn010G3/L0045-k0 (antibody, V domains shown, one-arm) VH: QVQLVQSGAEVKKPGASVKVSCKASGYTFTDYEMHWIRQPPGQGLEWIGAIDGKTPDTAYSQKFKGRVTLTADKSTSTAYMELSSLTSEDTAVYYCTRFYSYTYWGQGTLVTVSS VL: DIVMTQSPLSLPVTPGEPASISCRSSQSLVHQNRNTYLHWYQQKPGQAPRLLIYKVSNRFSGVPDRFSGSGSGTDFTLKISRVEAEDVGVYYCGQGTQVPYTFGQGTKLEIK | 4.66 nM
14 | H0610-G1dh/none-Hi-Kn010G3/L0041-k0 (antibody, V domains shown, one-arm) VH: QVQLVQSGAEVKKPGASVKVSCKASGYTFTDYEMHWIRQPPGQGLEWIGAIDGKTPDTAYSQKFKGRVTLTADKSTSTAYMELSSLTSEDTAVYYCTRFYSYTYWGQGTLVTVSS VL: DIVMTQSPLSLPVTPGEPASISCRSSQSLVHLNRNTYLHWYQQKPGQAPRLLIYKVSNRFSGVPDRFSGSGSGTDFTLKISRVEAEDVGVYYCGQGTQVPYTFGQGTKLEIK | 4.85 nM
15 | H0610-G1dh/none-Hi-Kn010G3/L0016-k0 (antibody, V domains shown, one-arm) VH: QVQLVQSGAEVKKPGASVKVSCKASGYTFTDYEMHWIRQPPGQGLEWIGAIDGKTPDTAYSQKFKGRVTLTADKSTSTAYMELSSLTSEDTAVYYCTRFYSYTYWGQGTLVTVSS VL: DIVMTQSPLSLPVTPGEPASISCRSSQSVVHSNRNTYLHWYQQKPGQAPRLLIYKVSNRFSGVPDRFSGSGSGTDFTLKISRVEAEDVGVYYCGQGTQVPYTFGQGTKLEIK | 4.44 nM
16 | H0610-G1dh/none-Hi-Kn010G3/L0046-k0 (antibody, V domains shown, one-arm) VH: QVQLVQSGAEVKKPGASVKVSCKASGYTFTDYEMHWIRQPPGQGLEWIGAIDGKTPDTAYSQKFKGRVTLTADKSTSTAYMELSSLTSEDTAVYYCTRFYSYTYWGQGTLVTVSS VL: DIVMTQSPLSLPVTPGEPASISCRSSQSLVHVNRNTYLHWYQQKPGQAPRLLIYKVSNRFSGVPDRFSGSGSGTDFTLKISRVEAEDVGVYYCGQGTQVPYTFGQGTKLEIK | 5.45 nM
17 | H0610-G1dh/none-Hi-Kn010G3/L0003-k0 (antibody, V domains shown, one-arm) VH: QVQLVQSGAEVKKPGASVKVSCKASGYTFTDYEMHWIRQPPGQGLEWIGAIDGKTPDTAYSQKFKGRVTLTADKSTSTAYMELSSLTSEDTAVYYCTRFYSYTYWGQGTLVTVSS VL: DIVMTQSPLSLPVTPGEPASISCRISQSLVHSNRNTYLHWYQQKPGQAPRLLIYKVSNRFSGVPDRFSGSGSGTDFTLKISRVEAEDVGVYYCGQGTQVPYTFGQGTKLEIK | 4.01 nM
18 | H0610-G1dh/none-Hi-Kn010G3/L0038-k0 (antibody, V domains shown, one-arm) VH: QVQLVQSGAEVKKPGASVKVSCKASGYTFTDYEMHWIRQPPGQGLEWIGAIDGKTPDTAYSQKFKGRVTLTADKSTSTAYMELSSLTSEDTAVYYCTRFYSYTYWGQGTLVTVSS VL: DIVMTQSPLSLPVTPGEPASISCRSSQSLVHFNRNTYLHWYQQKPGQAPRLLIYKVSNRFSGVPDRFSGSGSGTDFTLKISRVEAEDVGVYYCGQGTQVPYTFGQGTKLEIK | 2.75 nM
19 | H0610-G1dh/none-Hi-Kn010G3/L0042-k0 (antibody, V domains shown, one-arm) VH: QVQLVQSGAEVKKPGASVKVSCKASGYTFTDYEMHWIRQPPGQGLEWIGAIDGKTPDTAYSQKFKGRVTLTADKSTSTAYMELSSLTSEDTAVYYCTRFYSYTYWGQGTLVTVSS VL: DIVMTQSPLSLPVTPGEPASISCRSSQSLVHMNRNTYLHWYQQKPGQAPRLLIYKVSNRFSGVPDRFSGSGSGTDFTLKISRVEAEDVGVYYCGQGTQVPYTFGQGTKLEIK | 4.27 nM
20 | H0610-G1dh/none-Hi-Kn010G3/L0062-k0 (antibody, V domains shown, one-arm) VH: QVQLVQSGAEVKKPGASVKVSCKASGYTFTDYEMHWIRQPPGQGLEWIGAIDGKTPDTAYSQKFKGRVTLTADKSTSTAYMELSSLTSEDTAVYYCTRFYSYTYWGQGTLVTVSS VL: DIVMTQSPLSLPVTPGEPASISCRSSQSLVHSNRDTYLHWYQQKPGQAPRLLIYKVSNRFSGVPDRFSGSGSGTDFTLKISRVEAEDVGVYYCGQGTQVPYTFGQGTKLEIK | 5.28 nM
21 | H0610-G1dh/none-Hi-Kn010G3/L0014-k0 (antibody, V domains shown, one-arm) VH: QVQLVQSGAEVKKPGASVKVSCKASGYTFTDYEMHWIRQPPGQGLEWIGAIDGKTPDTAYSQKFKGRVTLTADKSTSTAYMELSSLTSEDTAVYYCTRFYSYTYWGQGTLVTVSS VL: DIVMTQSPLSLPVTPGEPASISCRSSQSMVHSNRNTYLHWYQQKPGQAPRLLIYKVSNRFSGVPDRFSGSGSGTDFTLKISRVEAEDVGVYYCGQGTQVPYTFGQGTKLEIK | 1.82 nM
22 | H0610-G1dh/none-Hi-Kn010G3/L0013-k0 (antibody, V domains shown, one-arm) VH: QVQLVQSGAEVKKPGASVKVSCKASGYTFTDYEMHWIRQPPGQGLEWIGAIDGKTPDTAYSQKFKGRVTLTADKSTSTAYMELSSLTSEDTAVYYCTRFYSYTYWGQGTLVTVSS VL: DIVMTQSPLSLPVTPGEPASISCRSSQSIVHSNRNTYLHWYQQKPGQAPRLLIYKVSNRFSGVPDRFSGSGSGTDFTLKISRVEAEDVGVYYCGQGTQVPYTFGQGTKLEIK | 3.35 nM
